Measured values from US20240173424A1, “ANTI-NECTIN-4-ANTIBODY EXATECAN CONJUGATES” (EMERGENCE THERAPEUTICS AG, priority 2021, published 2024).

What was measured:
human Nectin-4 [1] = experiment: Flow cytometry of MDA-MB231 transfected with Flag-tagged Nectin-4; type: binding; settings: MDA-MB231 transfected with Nectin-4, 0.3 ng/ml-5 μg/mL
Experimental: Detection by flow cytometry. • Flow cytometry analysis of MDA-MB231 transfected with the N-terminal Flag-tagged epitope of Nectin-4 using a dose range (0.3 ng/ml-5 μg/mL) of Ch-15A7.5 or Ch-5A12.2 antibodies Parental MDA-MB231 cells are included as controls. Cells were then stained with phycoerythrin conjugate goat anti human Fc antibody. The normalized mean fluorescence intensity is shown. Inlay: staining of parental MDA-MB231 cells with anti Nectin-1, -2 and -3 mAbs ([…]). Mean fluorescence intensity is represented.
Human breast carcinoma cell line MDA-MB231 (ATCC, Manassas, VA) was cultured in DMEM supplemented with 10% fetal bovine serum, 50 IU/mL penicillin, 50 μg/mL streptomycin and 2 mM glutamine. The cells were transfected with expression vector p3XFLR4.C1 containing a PVRL4 cDNA. Human triple negative breast cancer cell line SUM190PT (BioIVT, Westbury, NY) was cultures in Ham's F12 medium with 5% fetal bovine serum, 1% non-essential amino acids, 1% Hepes, 1% insulin, 1 μg/mL hydrocortisone, 6.8 ng/ml Triiodo L-tyrosine, 100 IU/mL penicillin, 100 μg/mL streptomycin and 2 mM glutamine. Chinese hamster ovary CHO cell line was cultured in DMEM supplemented with 10% fetal bovine serum, 100 IU/mL penicillin, 100 μg/mL streptomycin and 2 mM glutamine. […]

human Nectin-4 [2] = experiment: ELISA on coated Nectin-4 Fc fusion proteins (Nec4-VCC, Nec4-V); type: binding; settings: statement in FIG. 3 legend on the competitor mAbs
Experimental: Detection by ELISA. • Ninety-six-wells plates were coated, as indicated, with 5 μg/mL Nectin-1 extracellular domain Fc fusion recombinant protein (Nec1-VCC), or Nectin-4 IgV-like domain Fc fusion recombinant protein (Nec4-V), or Nectin-4 extracellular domain Fc fusion recombinant protein (Nec4-VCC) overnight at 4° ° C.
FIG. 3: Characterization of Ch-15A7.5 epitope. Competition assay was performed by ELISA. • Ninety-six-wells plates were coated with 5 μg/mL of Nectin-4 extracellular domain Fc fusion recombinant protein (Nec4-VCC) overnight at 4° C. Binding of peroxidase-conjugated Ch-15A7.5 mAb (5 μg/mL) was measured in presence of increasing concentrations (2.75 ng/ml-6 μg/mL) of Rituximab, Ch-15A7 mAb, Enfortumab (HA22), Ch-N41 mAb and Ch-14A5 mAb.
A sandwich enzyme-linked immunosorbent assay was used to control specificity of Ch-15A7.5 antibody and to perform competition assays between different mAbs. Ninety-six-wells plates were coated with 10 nM of Nectin-4-VCC-Fc, Nectin-1-VCC-Fc (entire extracellular part) or Nectin-4-V-Fc (comprising only the IgV domain) overnight at +4° C. After washes and saturation with PBS 1% BSA, cells were incubated for 2 hours at 25° C. with 10 nM of peroxidase-conjugated Ch-15A7.5 mAb. In the case of competition, binding of 0.5 nM of peroxidase conjugated Ch-15A7.5 mAb was measured in the presence of variable concentration (0.018 nM to 40 nM) of “cold” mAb. One hundred μL of peroxidase substrate was added (One Step ABST, Pierce), and OD was red at 405 nm.

SUM190PT cells = experiment: SUM190PT orthotopic xenograft in NSG mice; type: in vivo, mouse; settings: SUM190 grafted NSG mice, single intravenous injection, 4 or 8 mg/kg
Description: Treatment of mice (single intravenous injection) started when tumors reached approximately 150 mm^3. […] Tumor sizes (n=10/group) were monitored with a caliper twice a week thereafter and sizes were reported with the following formula (LxlxhxPi/6).
NOD/SCID (nonobese diabetic/severe combined immunodeficient)/gc null mice (NSG) were obtained from Charles River Laboratory (Margate, UK). Six to seven-weeks old females (n=5/group) were orthotopically xenografted bilaterally with the SUM190PT (0.5×10^6) cells embedded in Matrigel. Treatment with ADC was performed as mentioned in the respective experiments. Tumor sizes (n=10/group) were monitored with a caliper twice a week thereafter and sizes were reported with the following formula (LxlxhxPi/6).

[3] = molecular target: T1, Nectin-4 expressed by tumors and Nectin-4 expressed by human keratinocytes (Homo sapiens, UniProt Q96NY8); experiment: Differential binding to tumor cells and human keratinocytes; settings: in vitro differentiated Nectin-4 expressing keratinocytes
T1 construct: Cells or cell lines (10,000-50,000) expressing Nectin-4 (naturally or transfected); endogenous in cells; host or cells: SUM190/SUM190PT (also SUM149 in IHC), NHEK differentiated with 0.1 mM CaCl2, human skin sections
T1 sequence (Q96NY8 32-510): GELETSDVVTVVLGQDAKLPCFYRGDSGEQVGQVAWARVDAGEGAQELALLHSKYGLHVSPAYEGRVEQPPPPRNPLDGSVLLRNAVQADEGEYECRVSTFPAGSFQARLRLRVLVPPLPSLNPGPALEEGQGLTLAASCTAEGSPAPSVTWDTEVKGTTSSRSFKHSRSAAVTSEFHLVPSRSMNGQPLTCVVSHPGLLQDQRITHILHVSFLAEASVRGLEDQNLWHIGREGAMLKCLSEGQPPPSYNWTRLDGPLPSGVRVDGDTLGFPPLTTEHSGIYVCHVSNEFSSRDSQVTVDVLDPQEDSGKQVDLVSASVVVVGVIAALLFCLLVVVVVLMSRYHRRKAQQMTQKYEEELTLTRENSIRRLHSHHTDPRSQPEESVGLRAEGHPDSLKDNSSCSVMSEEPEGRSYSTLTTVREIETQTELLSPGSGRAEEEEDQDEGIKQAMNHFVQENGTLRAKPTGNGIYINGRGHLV
Description: FIG. 6: Differential binding to Nectin-4 expressed by tumor cell line and normal differentiated human keratinocytes. […] Cells were then stained with phycoerythrin conjugate goat anti human Fc antibody. Normalized mean fluorescence intensities are shown. Non-linear curve fitting (4 parameters) was done with GraphPad Prism 9 software. Horizontal bar is placed at 50% of maximum staining intensity obtained with HA22 antibody on SUM190 cells.
FIG. 7: Differential binding to Nectin-4 expressed by tumor cell line and normal differentiated human keratinocytes. Detection by flow cytometry. • Flow cytometry analysis of TNBC cell line (SUM190, A) and normal differentiated (0.1 mM CaCl2) human keratinocytes (NHEK, B) using 5 μg/mL of HA22 (Enfortumab), Ch-5A12.2, Ch-15A7.5, and Ch-8F06. Cells were then stained with phycoerythrin conjugate goat anti human Fc antibody. Normalized mean fluorescence intensities are shown.
FIG. 8: Differential binding to Nectin-4 expressed by tumor cell line and human keratinocytes. Detection by immuno-histochemistry. Cryo-preserved OCT-embedded blocks of high expressing levels of Nectin-4 tumor cell line (SUM190), low expressing levels of Nectin-4 tumor cell line (SUM149), human and cynomolgus skin were processed for staining with 15A7.5 mAb (A) and 9A2.7 mAb (B). Quick score reported for each mAb are shown (A, B). C, ratio of quick score SUM190 over human skin. […]
Remaining blocks were stored at −80° C. until further use. […] Several dilution of each mAb were tested to optimize noise to signal ratio and 0.5 μg/ml of mouse 15A7.5 mAb and 10 µg/mL of mouse 9A2.7 mAb were determined as optimal. […] Both the stained cells proportion and the staining intensity were evaluated for each field. […] Scoring procedure was as follows: (i) The proportion of cells stained positively was estimated and a score from 0 to 4 was be assigned for each field (0=0-5%; 1=5-25%; 2=25-50%; 3=50-75%; and 4=75-100%); and (ii) The staining intensity was scored as 0, 1, 2, or 3 corresponding to the presence of negative, weak, intermediate, and strong brown staining, respectively. […]

B1: Ch-5A12.2: chimeric antibody of 5A12.2 (antibody, V domains shown)
VH: QIQLQQSGAELVKPGASVTLSCKTSGFTFNSMYISWLKQKPGQSLEWIAWIYAGTGGTRFNQKFTGKVQLTVDTSSSTAYMQFSSLTTDDSAIYYCAIRSGFVPMDYWGQGTSVTVSS
VL: SIVMTQTPKFLLVSAGDRVTITCKASQSVSNDVAWYQQKPGQSPKLLIYYASNRYTGVPDRFTGSGYGTDFTFTISTVQAEDLAVYFCQQDYSSPWTFGGGTKLEIK
recognition of human Nectin-4 (human Nectin-4 [1]): recognize human Nectin-4

B2: HA22: human monoclonal anti-Nectin-4 antibody described in WO2012/047724, antibody of Enfortumab vedotin (antibody, V domains shown)
VH: EVQLVESGGGLVQPGGSLRLSCAASGFTFSSYNMNWVRQAPGKGLEWVSYISSSSSTIYYADSVKGRFTISRDNAKNSLSLQMNSLRDEDTAVYYCARAYYYGMDVWGQGTTVTVSS
VL: DIQMTQSPSSVSASVGDRVTITCRASQGISGWLAWYQQKPGKAPKFLIYAASTLQSGVPSRFSGSGSGTDFTLTISSLQPEDFATYYCQQANSFPPTFGGGTKVEIK
recognition of the IgV domain of Nectin-4 (human Nectin-4 [2]): recognize the IgV domain of Nectin-4

B3: HA22-MC-GGFG-DX8951 (conjugate, chains of the INN, looked up)
VH: EVQLVESGGGLVKPGGSLKLSCAASGFAFSIYDMSWVRQTPEKCLEWVAYISSGGGTTYYPDTVKGRFTISRDNAKNTLYLQMSSLKSEDTAMYYCARHSGYGTHWGVLFAYWGQGTLVTVSA
VL: DIQMTQTTSSLSASLGDRVTISCRASQDISNYLNWYQQKPDGTVKLLIYYTSILHSGVPSRFSGSGSGTDYSLTISNLEQEDFATYFCQQGNTLPWTFGCGTKLEI
modifications: MC-GGFG-DX8951 (exatecan) payload
tumor regression (SUM190PT cells): induces a long-lasting tumor regression period

B4: mAb 3A1.4: monoclonal anti-Nectin-4 antibody characterized by SEQ ID NO:s 96-103 (antibody, V domains shown)
VH: DVQLQESGPSLVKPSQTLSLTCSVTGDSITSGYWNWIRKFPGNKLEYMGYISNSGITYYNPSLKSRISITRDTSKNQYFLQLNSVTAEDTATYYCTRFGSTMILYYTMDYWGQGTSVTVSS
VL: DIVMTQSPVTLSVTPGDRVSLSCRASQSISDYLHWYQQKSQESPRLLIKYASKSISGIPSRFSGSGSGSNFTLSINSVEPEDVGVYYCQNGHSFPLTFGAGTKLELK
modifications: VH_3A1.4; VK_3A1.4
affinity to Nectin-4 expressed by tumors in comparison to Nectin-4 expressed by human keratinocytes [3]: higher affinity
